Publication PMC2112137

Legend:
[1] = target: rabbit skeletal muscle F-actin (rabbit) (UniProt P68135); assay: co-sedimentation
[2] = target: F-actin-36,000-dalton factor complex (rabbit skeletal F-actin plus Physarum 36,000-dalton factor) (rabbit | Physarum polycephalum) (UniProt P68135); assay: co-sedimentation
[3] = target: plasmodial actin of Physarum polycephalum (pure plasmodial F-actin) (Physarum polycephalum); assay: light scattering
[4] = target: plasmodial actin of Physarum polycephalum (pure plasmodial F-actin) (Physarum polycephalum); assay: co-sedimentation

36,000-dalton factor (novel 36,000-dalton actin-binding protein from Physarum plasmodia) (natural protein)
factor/actin weight ratio in the pellet (g/g (factor/actin)) [1]: 0.12 | stoichiometry N (mol actin per mol 36,000-dalton factor) [1]: 6.6

rabbit skeletal muscle troponin (complex)
Bound TN (%) [2]: 25.8%

heavy meromyosin (HMM) of rabbit skeletal muscle myosin (complex)
HMM bound by 0.1 mg/ml F-actin (untreated actin) [3]: 0.362 mg/mL | stoichiometry N (mol actin monomer per mol HMM) [3]: 2 | Actin/HMM binding ratio [4]: 0.192 g/g | stoichiometry N (mol actin per mol HMM) [4]: 2
